T1: LigD protein of B. subtilis (LigD_(Bsub)), C-terminal His6 (B. subtilis, UniProt O34398 1-611)
T1 sequence (looked up): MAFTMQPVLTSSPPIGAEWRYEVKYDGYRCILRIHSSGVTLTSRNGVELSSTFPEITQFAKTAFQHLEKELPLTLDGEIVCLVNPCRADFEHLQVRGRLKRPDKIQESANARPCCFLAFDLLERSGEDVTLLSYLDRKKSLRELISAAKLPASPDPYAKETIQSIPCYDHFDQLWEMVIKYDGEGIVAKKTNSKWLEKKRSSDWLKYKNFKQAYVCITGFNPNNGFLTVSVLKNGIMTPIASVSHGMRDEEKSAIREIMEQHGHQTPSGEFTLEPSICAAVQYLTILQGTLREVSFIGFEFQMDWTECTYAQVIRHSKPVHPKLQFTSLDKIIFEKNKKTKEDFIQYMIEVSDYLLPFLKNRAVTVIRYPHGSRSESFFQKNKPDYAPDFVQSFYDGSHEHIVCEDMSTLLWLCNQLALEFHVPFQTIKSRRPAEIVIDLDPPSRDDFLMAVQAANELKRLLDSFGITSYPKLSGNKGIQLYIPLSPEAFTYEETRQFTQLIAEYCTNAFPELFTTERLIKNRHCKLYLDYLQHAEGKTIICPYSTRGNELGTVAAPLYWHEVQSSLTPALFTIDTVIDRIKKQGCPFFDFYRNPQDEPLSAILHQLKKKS


Columns and labels:
cross-linking = biological target: the molecule itself; test: cross-linking
[1] = biological target: T1, LigD protein of B. subtilis …; test: SPR

| Kd [1] | Binder | stoichiometry N (cross-linking) |
| --- | --- | --- |
|  | Ku core, Ku_(Bsub) truncated of the entire C-terminal domain (M18 to P256 of NP_389224.1), N-terminal His6 (domain or fragment, B. subtilis 168, UniProt O34859 18-256, looked up) MHTMWKGSISFGLVNIPIKLYAATEDKDIKLRSLHKEDHAPIKYEKVCTNCEKTLSPDEIVKGYEYVKGKYVVLTDEDLKSLKQEHEEKAVEIVDFVQLQEIDPIYFNRSYFVGPGDNGTKAYTLLREALRSTGKIGIANMTIRSKQQLAILRVYENCIVMESIHYPDEVRSAAQVPGVPDQSNVNDKELQTAITLIDELTAKFEPEKYEDTYRQALLQRVNDKLENKETAVTPDKAPP | 2 |
| 11 µM | KuΔexCter, Ku_(Bsub) truncated of the extended Cter (M18 to P277 of NP_389224.1), N-terminal His6 (domain or fragment, B. subtilis 168, UniProt O34859 18-277, looked up) MHTMWKGSISFGLVNIPIKLYAATEDKDIKLRSLHKEDHAPIKYEKVCTNCEKTLSPDEIVKGYEYVKGKYVVLTDEDLKSLKQEHEEKAVEIVDFVQLQEIDPIYFNRSYFVGPGDNGTKAYTLLREALRSTGKIGIANMTIRSKQQLAILRVYENCIVMESIHYPDEVRSAAQVPGVPDQSNVNDKELQTAITLIDELTAKFEPEKYEDTYRQALLQRVNDKLENKETAVTPDKAPPREDVIDLVSALQASIDRTRRP | 2 |
